Experimental data: patent US20120219559A1 (Johns Hopkins, published 2012)

T1: B7-DC (Mus musculus, UniProt Q9WUL5)
T1 sequence (membrane protein, looked up): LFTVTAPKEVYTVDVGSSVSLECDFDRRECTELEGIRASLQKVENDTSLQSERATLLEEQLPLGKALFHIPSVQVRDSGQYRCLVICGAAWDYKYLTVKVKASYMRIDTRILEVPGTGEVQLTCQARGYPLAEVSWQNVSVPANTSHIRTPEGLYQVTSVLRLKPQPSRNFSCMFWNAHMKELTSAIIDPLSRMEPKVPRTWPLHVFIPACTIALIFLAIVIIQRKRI

T2: mouse B7-H2, full length, expressed on 293T cells (mouse, UniProt Q9JHJ8 44-322)
T2 construct: whole, on cells
T2 sequence (looked up): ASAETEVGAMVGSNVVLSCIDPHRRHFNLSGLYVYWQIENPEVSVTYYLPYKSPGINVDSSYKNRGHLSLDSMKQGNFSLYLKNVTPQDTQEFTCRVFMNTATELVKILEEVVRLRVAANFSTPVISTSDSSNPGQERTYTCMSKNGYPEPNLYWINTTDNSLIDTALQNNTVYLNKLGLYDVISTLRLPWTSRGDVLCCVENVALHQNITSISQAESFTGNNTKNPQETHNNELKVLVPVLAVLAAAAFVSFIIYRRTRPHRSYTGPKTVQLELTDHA

T3: PD-1 (Mus musculus, UniProt Q02242)
T3 sequence (membrane protein, looked up): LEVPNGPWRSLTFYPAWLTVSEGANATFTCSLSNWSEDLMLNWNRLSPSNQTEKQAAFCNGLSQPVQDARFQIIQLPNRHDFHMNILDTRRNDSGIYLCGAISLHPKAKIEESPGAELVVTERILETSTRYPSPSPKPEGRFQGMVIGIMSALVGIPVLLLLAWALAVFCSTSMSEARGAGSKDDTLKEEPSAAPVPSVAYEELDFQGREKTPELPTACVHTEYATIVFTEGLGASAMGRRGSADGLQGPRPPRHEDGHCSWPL

T4: CD28 (Mus musculus, UniProt P31041)
T4 sequence (membrane protein, looked up): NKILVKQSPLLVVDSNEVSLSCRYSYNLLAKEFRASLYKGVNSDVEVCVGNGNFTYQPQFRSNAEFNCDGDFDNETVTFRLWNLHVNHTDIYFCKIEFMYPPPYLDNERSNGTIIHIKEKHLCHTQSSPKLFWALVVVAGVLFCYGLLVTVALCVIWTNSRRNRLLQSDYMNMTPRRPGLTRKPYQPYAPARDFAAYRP

T5: human B7-2 (CD86, B70) expressed on 293T cells (human, UniProt P42081 24-329)
T5 construct: whole, on cells
T5 sequence (looked up): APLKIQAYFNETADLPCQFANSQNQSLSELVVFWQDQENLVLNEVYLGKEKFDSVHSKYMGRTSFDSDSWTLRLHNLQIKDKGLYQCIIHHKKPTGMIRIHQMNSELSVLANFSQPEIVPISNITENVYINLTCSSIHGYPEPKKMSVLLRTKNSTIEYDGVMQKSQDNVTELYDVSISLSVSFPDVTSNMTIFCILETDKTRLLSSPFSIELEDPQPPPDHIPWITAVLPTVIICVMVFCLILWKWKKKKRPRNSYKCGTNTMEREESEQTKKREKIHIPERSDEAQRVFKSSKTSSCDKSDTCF

T6: human B7-H2, full length, expressed on cells (B7-H2+293T cells) (human, UniProt O75144 19-302)
T6 construct: This id also stands for endogenous B7-H2 on monocyte-derived dendritic cells in the functional rows; also called ICOSL; ICOSLG
T6 sequence: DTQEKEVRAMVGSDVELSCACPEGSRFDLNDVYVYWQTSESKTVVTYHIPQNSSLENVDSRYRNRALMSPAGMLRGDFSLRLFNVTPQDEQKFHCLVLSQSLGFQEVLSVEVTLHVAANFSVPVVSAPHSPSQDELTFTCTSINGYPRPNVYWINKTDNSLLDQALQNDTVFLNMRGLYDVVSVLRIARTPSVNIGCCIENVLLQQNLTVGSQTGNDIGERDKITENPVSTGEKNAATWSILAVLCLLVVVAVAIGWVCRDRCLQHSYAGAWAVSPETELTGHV

T7: human B7-1 (CD80) expressed on 293T cells (human, UniProt P33681 35-288)
T7 construct: whole, on cells
T7 sequence (looked up): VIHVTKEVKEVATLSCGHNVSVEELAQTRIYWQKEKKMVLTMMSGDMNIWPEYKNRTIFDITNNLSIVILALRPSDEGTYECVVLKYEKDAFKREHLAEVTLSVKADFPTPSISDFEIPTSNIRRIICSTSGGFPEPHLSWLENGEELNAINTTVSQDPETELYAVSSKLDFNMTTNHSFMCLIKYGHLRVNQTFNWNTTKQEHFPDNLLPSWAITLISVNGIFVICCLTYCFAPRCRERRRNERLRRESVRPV

T8: human B7-DC expressed on 293T cells (human, UniProt Q9BQ51 20-273)
T8 construct: whole, on cells
T8 sequence (looked up): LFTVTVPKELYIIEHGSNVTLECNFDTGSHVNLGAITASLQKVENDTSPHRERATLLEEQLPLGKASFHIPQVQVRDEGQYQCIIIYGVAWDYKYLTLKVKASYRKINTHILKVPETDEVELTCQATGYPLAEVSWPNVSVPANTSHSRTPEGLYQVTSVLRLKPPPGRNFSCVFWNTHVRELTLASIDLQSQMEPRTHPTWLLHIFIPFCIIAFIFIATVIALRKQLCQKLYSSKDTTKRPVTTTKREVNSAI

B1: PD-1Ig (Fc fusion, Mus musculus, UniProt Q02242 25-167, looked up)
fusion protein: LEVPNGPWRSLTFYPAWLTVSEGANATFTCSLSNWSEDLMLNWNRLSPSNQTEKQAAFCNGLSQPVQDARFQIIQLPNRHDFHMNILDTRRNDSGIYLCGAISLHPKAKIEESPGAELVVTERILETSTRYPSPSPKPEGRFQ
notes: Ig fusion protein purchased from R&D systems; also called mouse PD-1Ig fusion protein
B2: human B7-1Ig fusion protein (Fc fusion, UniProt P33681 35-242, looked up)
chain: VIHVTKEVKEVATLSCGHNVSVEELAQTRIYWQKEKKMVLTMMSGDMNIWPEYKNRTIFDITNNLSIVILALRPSDEGTYECVVLKYEKDAFKREHLAEVTLSVKADFPTPSISDFEIPTSNIRRIICSTSGGFPEPHLSWLENGEELNAINTTVSQDPETELYAVSSKLDFNMTTNHSFMCLIKYGHLRVNQTFNWNTTKQEHFPDN
notes: Bought from R&D Systems; Ig (Fc) part not given
B3: human B7-H2Ig fusion protein (Fc fusion)
chain: DTQEKEVRAMVGSDVELSCACPEGSRFDLNDVYVYWQTSESKTVVTYHIPQNSSLENVDSRYRNRALMSPAGMLRGDFSLRLFNVTPQDEQKFHCLVLSQSLGFQEVLSVEVTLHVAANFSVPVVSAPHSPSQDELTFTCTSINGYPRPNVYWINKTDNSLLDQALQNDTVFLNMRGLYDVVSVLRIARTPSVNIGCCIENVLLQQNLTVGSQTGNDIGERDKITENPVSTGEKNAATWS
notes: Ig (Fc) part not given
B4: ICOSIg (Fc fusion, Mus musculus, UniProt Q9WVS0 21-144, looked up)
fusion protein: EINGSADHRMFSFHNGGVQISCKYPETVQQLKMRLFREREVLCELTKTKGSGNAVSIKNPMLCLYHLSNNSVSFFLNNPDSSQGSYYFCSLSIFDPPPFQERNLSGGYLHIYESQLCCQLKLWL
notes: Ig fusion protein purchased from R&D systems; also called mouse ICOSIg fusion protein
B5: B7-DCIg (Fc fusion, Mus musculus, UniProt Q9WUL5 20-219, looked up)
fusion protein: LFTVTAPKEVYTVDVGSSVSLECDFDRRECTELEGIRASLQKVENDTSLQSERATLLEEQLPLGKALFHIPSVQVRDSGQYRCLVICGAAWDYKYLTVKVKASYMRIDTRILEVPGTGEVQLTCQARGYPLAEVSWQNVSVPANTSHIRTPEGLYQVTSVLRLKPQPSRNFSCMFWNAHMKELTSAIIDPLSRMEPKVPR
notes: Ig fusion protein purchased from R&D systems; also called mouse B7-DCIg fusion protein
B6: ICOS (receptor, Mus musculus, UniProt Q9WVS0 21-200, looked up)
membrane protein: EINGSADHRMFSFHNGGVQISCKYPETVQQLKMRLFREREVLCELTKTKGSGNAVSIKNPMLCLYHLSNNSVSFFLNNPDSSQGSYYFCSLSIFDPPPFQERNLSGGYLHIYESQLCCQLKLWLPVGCAAFVVVLLFGCILIIWFSKKKYGSSVHDPNSEYMFMAAVNTNKKSRLAGVTS
B7: B7-H2Ig (Fc fusion, Mus musculus, UniProt Q9JHJ8 47-279, looked up)
fusion protein: ETEVGAMVGSNVVLSCIDPHRRHFNLSGLYVYWQIENPEVSVTYYLPYKSPGINVDSSYKNRGHLSLDSMKQGNFSLYLKNVTPQDTQEFTCRVFMNTATELVKILEEVVRLRVAANFSTPVISTSDSSNPGQERTYTCMSKNGYPEPNLYWINTTDNSLIDTALQNNTVYLNKLGLYDVISTLRLPWTSRGDVLCCVENVALHQNITSISQAESFTGNNTKNPQETHNNELK
notes: Ig fusion protein purchased from R&D systems; also called mouse B7-H2Ig fusion protein

Columns and labels:
CTLA-4 = CTLA-4 (Mus musculus, UniProt P09793); assay: CDS well image, 293T cells transfected with the mouse gene, stained with the mouse fusion protein
ICOS = biological target: B6; assay: as above
B7-DC = biological target: T1, B7-DC; assay: as above
[1] = biological target: T2, mouse B7-H2, full length, expressed on …; assay: as above
PD-1 = biological target: T3, PD-1; assay: as above
CD28 = biological target: T4, CD28; assay: as above
B7-H1 = B7-H1 (Mus musculus, UniProt Q9EP73); assay: as above
[2] = biological target: T5, human B7-2 (CD86, B70) expressed on …; assay: CDS well image, 293T cells transfected with the human gene, stained with the human fusion protein
[3] = biological target: T6, human B7-H2, full length, expressed on …; assay: as above
[4] = biological target: T7, human B7-1 (CD80) expressed on 293T …; assay: as above
[5] = biological target: T8, human B7-DC expressed on 293T cells; assay: as above
[6] = biological target: T9, human B7-H1 expressed on 293T cells (human, UniProt Q9NZQ7 19-290); assay: as above
T9 construct: whole, on cells

B7-H1Ig = biological target: T10, B7-H1Ig (Mus musculus, UniProt Q9EP73); assay: CDS well image, 293T cells transfected with the mouse gene, stained with the mouse fusion protein
T10 construct: Ig fusion protein purchased from R&D systems; also called mouse B7-H1Ig fusion protein

B7-DCIg = biological target: B5; assay: as above

Sequence of B7-H1 (Q9EP73 19-290 limits assumed): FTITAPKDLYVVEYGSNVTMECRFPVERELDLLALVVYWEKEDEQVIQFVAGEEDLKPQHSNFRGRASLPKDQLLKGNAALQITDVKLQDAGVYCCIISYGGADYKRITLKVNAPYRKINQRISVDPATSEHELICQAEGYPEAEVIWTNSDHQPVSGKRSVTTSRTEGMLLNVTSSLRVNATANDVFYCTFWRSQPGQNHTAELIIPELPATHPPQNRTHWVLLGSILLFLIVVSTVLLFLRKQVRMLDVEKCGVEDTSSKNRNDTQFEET
T10 sequence (Q9EP73 19-238 limits assumed): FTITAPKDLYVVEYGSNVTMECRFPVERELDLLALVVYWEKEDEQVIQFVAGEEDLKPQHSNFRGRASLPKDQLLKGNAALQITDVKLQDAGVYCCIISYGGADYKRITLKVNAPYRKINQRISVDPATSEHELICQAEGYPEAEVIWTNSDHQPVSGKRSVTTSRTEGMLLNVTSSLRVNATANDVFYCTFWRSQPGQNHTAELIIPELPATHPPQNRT
T9 sequence (Q9NZQ7 19-290): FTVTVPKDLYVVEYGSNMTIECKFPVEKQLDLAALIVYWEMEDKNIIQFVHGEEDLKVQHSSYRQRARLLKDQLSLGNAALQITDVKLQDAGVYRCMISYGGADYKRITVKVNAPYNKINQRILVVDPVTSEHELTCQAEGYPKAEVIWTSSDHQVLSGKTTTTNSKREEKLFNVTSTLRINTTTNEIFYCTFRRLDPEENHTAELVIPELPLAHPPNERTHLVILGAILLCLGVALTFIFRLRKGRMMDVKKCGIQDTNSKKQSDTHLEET

Binder: B1
binding result (CTLA-4): no binding
binding result (ICOS): no binding
binding result (B7-DC): binds
binding result [1]: no binding
binding result (PD-1): no binding
binding result (CD28): no binding
binding result (B7-H1): binds

Binder: B2
binding result [2]: no binding
binding result [3]: no binding
binding result [4]: no binding
binding result [5]: no binding

Binder: B3
binding result [2]: no binding
binding result [3]: no binding
binding result [6]: no binding
binding result [4]: no binding
binding result [5]: no binding

Binder: B4
binding result (CTLA-4): no binding
binding result (ICOS): no binding
binding result (B7-DC): no binding
binding result [1]: binds
binding result (PD-1): no binding
binding result (CD28): no binding
binding result (B7-H1): no binding

Binder: B5
binding result (B7-DC): no binding
binding result [1]: no binding
binding result (PD-1): binds
binding result (B7-H1): no binding

Binder: B6
binding result (B7-H1Ig): no binding
binding result (B7-DCIg): no binding

Binder: B7
binding result [1]: no binding
binding result (PD-1): no binding
binding result (B7-H1): no binding
